From the nanobody polyreactivity screen of Harvey et al. (2022)

Experiment: yeast display, Sf9 membrane polyspecificity reagent, FACS + sequencing; frameworks hold sequencing errors
In short: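 A synthetic nanobody library was expressed on Saccharomyces cerevisiae BJ5465 by galactose induction for 36–48 hours. The library was stained for 1 hour at 4 °C with 10% biotinylated, detergent-solubilized Sf9 membrane reagent and enriched with streptavidin microbeads before FACS. Low and high (top ~1%) gates were set on anti-HA fluorescence for expression and streptavidin fluorescence for reagent binding, and each polyreactivity label reflects the gate of origin.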

Sequence | polyreactivity (PSR sort gate)
QVQLVESGGGLVQAGGSLRLSCAASGSTFSSNPMGWYRQAPGKERELVAAISVNGGSTNYADSVKGRFTISRDNAKNTVYLQMNSLKPVDTAVYYCAAEPAKVAFYRGDYWGQGTQVTVSS | low polyreactivity
QVQLVESGGGLVQAGGSLRLSCAASGSTFSSYAMGRYRQAPGKERELVAVITRGTSTNYADSVKGRFTISRDNAKNTVYLQMNSLKPEDTAVYYCNARRGSRRFGYWGQGTQVNVSS | high polyreactivity
QVQLVESGGGLVQAGGSLRLSCAASGSTFSSYAMGWYRQAPGKERELVAAISRRGGRTYYADSVKGRFTISRDNAKNTVYLQMNRLKPEDTAVYYCAADWGVRDEYYYWGQGTQVTVSS | high polyreactivity
QVQLVESGGGLVQAGGSLRLSCAASGSTFSSYAMGWYRQAPGKERELVAATYYADSVKGRFTISRDNAKNTVYLQMNSLKPEDTAVYYCNADNDYQGGKEYDYWGQGTQVTVSS | low polyreactivity
QVQLVESGGGLVQAGGSLRLSCAASGSTFSSYVMGWYRKAPVKERELVAAISSIGGSTYFADSVKGRFTISRDNAKNTVYLQMNSLKPEDTAVYFCAAEPPGSTYEGGYWGQGTQVTVSS | low polyreactivity
QVQLVESGGGLVQAGGSLRLSCAASGSTFSTNALGWYREAPGKELELVDDISSSSGRTYYADSVKGRFTISRDNAKNTVYLQMNSLKPEDTAVYYCAAANQGYRSGRKGVQRFDYWGQGTQVTVSS | high polyreactivity
QVQLVESGGGLVQAGGSLRLSCAASGSTFSTNAMGWFIQAPGKARELVAGISRSGGRTYYADSVKGRFTISRDNAKTTVYLQMNSLKPEETAVYYSNAVRRFASPSPHYYWGQGTQVTLSS | high polyreactivity
QVQLVESGGGLVQAGGSLRLSCAASGSTFSTNAMGWYRPAPAKEREFGAAITWSGDSTDYADSVKGRFTISRDNAKNTVYLHMNSLKPEDTAVYYCSAGPFLESYRGYSEMDYWGQGTQVTVSS | low polyreactivity
QVQLVESGGGLVQAGGSLRLSCAASGSTFSTNAMGWYRQAPGKERELVAAISRRGGNTYYADSVKGRFTISRDNAKNTVYLQMNSLKPEDTAGYYCAAKYYRFGDPDRYDYWGQGTQVTVSS | high polyreactivity
QVQLVESGGGLVQAGGSLRLSCAASGSTFSTYAMGWYRQAPGKERELVAAIRSGGSTYYADSVKGRFTISRDNAKNTVYLQMNSLKPEDTAVYYCAAKPRNYSYRYYYWGQGTLVTVSS | high polyreactivity
QVQLVESGGGLVQAGGSLRLSCAASGSTFSTYAMGWYRQAPGKERELVAAITRRGGRTYYADSVKGRFTISRDNAKNTVYLQMNSLKPEDTAVYYCAKTSPVSDGYYWGQGTQVTVSS | high polyreactivity
QVQLVESGGGLVQAGGSLRLSCAASGSTFSVYAMGWYRQAPGKERELVATISWGGGITYYADSVKGRFTISRDNAKNTVYLQMNSLKPEDTAVYYCAKELYSWLPGYRCEGTMDYWGQGTQVTVSS | high polyreactivity
QVQLVESGGGLVQAGGSLRLSCAASGSTFSVYAMGWYRQAPGKERELVATISWGGGITYYADSVKGRFTISRDNAKNTVYLQMNSLKPEDTAVYYCHSSKYGYWGQGTQVTVSS | high polyreactivity
QVQLVESGGGLVQAGGSLRLSCAASGSTFSWYAMGWYRQAPGKERELVASISFSGGDTSYADSVKGRFTISRDNAKNTVYLQMNSLKPEDTEVYYCGKEYKYETDTIFDYWGQGTQVTVSS | low polyreactivity
QVQLVESGGGLVQAGGSLRLSCAASGSTFSWYTMGWYRQAPGKERELVAAISWSGGRTYYADSVKGRFTISRDNAKNTVYLQMNSLKPEDTAVYYCAAYDYWYSLGDYQFYYSGQGTQVTVSS | low polyreactivity
QVQLVESGGGLVQAGGSLRLSCAASGSTFSYAMGWYRQAPGKERELVAAITIGGRTSYADSVKGRFTISRDNAKNTVYLQMNSLKPEDTAVYYCAAEGYYPVYYYVYYGYDYWGQGTQVTVSS | low polyreactivity
QVQLVESGGGLVQAGGSLRLSCAASGSTFSYNAMGWYRQAPGKERELVAAIDRSVSTNYADSVKGRFTISRDNAKNTVYLQMNSLKTEDTAVYYCNARHPTDDIVIYDYWGQGTQVTVSS | low polyreactivity
QVQLVESGGGLVQAGGSLRLSCAASGSTFSYNAMGWYRQAPGKERELVAAISRRGGGTYYADSVKGRFTISRDKAKNTVSLHMNSLKPVDTAVYYCNADIWYKTYDYWGQGTQVTVSS | low polyreactivity
QVQLVESGGGLVQAGGSLRLSCAASGSTFSYNAMGWYRQAPGKERELVAAITSTGRTYYADSVKGRFTITRDNAKNTVYLQMISLKPEDTAGYYCNKVYYRFYSADFGYGWYLRYDYWGQGTQVTVSS | high polyreactivity
QVQLVESGGGLVQAGGSLRLSCAASGSTFSYNMGWYRQAPGKERELVAAISGSGGSTYADSVKGRFTISRDNAKNTVYLQMNSLKPEDTAVYYCATVRYWVHEYGYWGQGTQVTVSS | high polyreactivity
QVQLVESGGGLVQAGGSLRLSCAASGSTFSYYAMGWYRQAPGKERELVAAITRGGSTYYADSVKGRFTISRDNAKNTVYLQMNSLKPEDTAVYYCATRTWRWGYLHYDYWGQGTQVTVSS | low polyreactivity

Sequence | polyreactivity (PSR sort gate)
QVQLVESGGGLVQAGGSLRLSCAASGSTFSYYAMGWYRQAPGKERELVASISSGGSTNYADSVKGRFTISRANAKNTVYLQMNSLKPEDSAVYYCKADSWTVNRRYYYYRYEYWGQGSQVTVSS | low polyreactivity
QVQLVESGGGLVQAGGSLRLSCAASGSTFSYYAMVWYRQAPGKERELVADISSGGSTNYADSVKGRFTISRDNAKNTVYLQMNSLKPEDTAVYYCNRRYSYYDGFDYWGQGTQVTVSS | low polyreactivity
QVQLVESGGGLVQAGGSLRLSCAASGSTFSYYTMGWSRQAPGKERELVAAISRGGSTNYADSVKGRFTISRDNAKNTVYLQMNSLKPEDTAVYYCAAEPGRTKRYKVRMDYWGQGTQVTVSS | high polyreactivity
QVQLVESGGGLVQAGGSLRLSCAASGSTFSYYTMGWYRQAPGKERELVADIDSGDDTYYADSVKGRFTISRDNAKNTVYLQMNSLKPEDTAVYYCATEFNRPHFTVRVRFKYYYWGQGTQVTVSS | low polyreactivity
QVQLVESGGGLVQAGGSLRLSCAASGSTFSYYTMGWYRQAPGKERELVAGISYSGGRTYYADSVKGRFTSSRDKAKNTVYLQMNSLKPEDTAVYYCAKVSWRRGAFYYWGQGTQVTVSS | high polyreactivity
QVQLVESGGGLVQAGGSLRLSCAASGSTFSYYTMGWYRQATGKERELVAAISGSGGSTYYADSVKGRFTISRDNAKNTVYLQMKSLKPEDTAVYYCAALRAGSKCFDFWGQGTQVTVSS | high polyreactivity
QVQLVESGGGLVQAGGSLRLSCAASGSTFTAYAMGWYRQATREDRELVARIGGTYYADSVKGRFTISRDNAKNTVYLQMNSLKPEDTAVYYCAAEYGYDFFRSYQEYGYWGQGTQVTVSS | low polyreactivity
QVQLVESGGGLVQAGGSLRLSCAASGSTFTDYAMGWYRQAPGKERELVAAITNSGSSTNYEDSVKGRFTISRDNAKNTVYLQMNSLKPEDTAVYYCNASSYPWEYYYLYYGYDYWVQGTQVTVSS | low polyreactivity
QVQLVESGGGLVQAGGSLRLSCAASGSTFTDYAMGWYRQAPGKERELVASITSGGRTNYADSVKGRFTISRDNAKNTVYLQMNSLKPEDTAVYYCNASAWLVVARTRYGYWGQGTQVTVSS | low polyreactivity
QVQLVESGGGLVQAGGSLRLSCAASGSTFTDYTMGWYRQAPGKERELVARIRSRGARTYYADSVKGRFTISRDNAKNTVYLQMNSLKPEDTAVYYCAAAGVRSYAGDYWGQGTQVTVSS | high polyreactivity
QVQLVESGGGLVQAGGSLRLSCAASGSTFTFNAMVWYRQAPGKERELVAAITTSAGSTYYADSVKGRFTISRDNAKNTVYLQMSSLKPEDTAVYYCAARYVPPWGRRYYYWGQGTQVTVSS | high polyreactivity
QVQLVESGGGLVQAGGSLRLSCAASGSTFTGNAMGWYRQAPGKERELVAAISRSGGRTYYADSVKGRFTISRDNAKNTVYLQMNILKPEDTGVYYCNAVRNRGQRTAFDYWGQGTQVTVSS | high polyreactivity
QVQLVESGGGLVQAGGSLRLSCAASGSTFTGNAMGWYRQAPGKERELVASINGSSGSTYYADSVKGRFTISRDNAKNTVYLQMNSLKPEDTAVYYGAKDSFLHFPRVGWVGLEYWGQGTQVTVSS | low polyreactivity
QVQLVESGGGLVQAGGSLRLSCAASGSTFTGYALGWYRQAPGKERELVAAISSGGSTYYADSVKGRFTISRDNAKNTVYLQMNSLKPEDTAVYYCAAAPRWKASRLYYWGQGTQVTVSS | high polyreactivity
QVQLVESGGGLVQAGGSLRLSCAASGSTFTGYAMGWYRQAPGKERELVAGISVTGGNTYYADSVKGRFTISRDNAKKTVYLQMNSLKPEDTAVYYCNAVVLSYYAGEMDYWGQGTQVTVSS | low polyreactivity
QVQLVESGGGLVQAGGSLRLSCAASGSTFTHYAMGWYRQAPGKERELVAAISSRGGSTYADSVKGRFTISRDNAKNTVYLQMNSLKPEDTAVYYCAARYRLYYYFRFDWGQGTQVTVSS | high polyreactivity
QVQLVESGGGLVQAGGSLRLSCAASGSTFTIYAMGWYRQAPGTERELVATIRAGGGRTSYADSVKGRFTISRDNAKNTVYLQMNSLKPEETAVYYCAVYVRPTRYGYWGQGTQVTVSS | high polyreactivity
QVQLVESGGGLVQAGGSLRLSCAASGSTFTIYAYGWYRQAPGKERELVAAITRGGGRTYYADSVKGRFTISRDNAKNTVFLQMNSLKPEVTAVYYCAAYYAHEFDYRGQGTQVTVSS | high polyreactivity
QVQLVESGGGLVQAGGSLRLSCAASGSTFTKYAMGWYRQAPGQERELVAAITASGGNTYYADSVKGRFTISRDNAKNTVYLQMNSLKPEDTAVYSCAAVTGLFYHPFYKYNYWGQGTQVTVSS | high polyreactivity
QVQLVESGGGLVQAGGSLRLSCAASGSTFTKYDMGWYRQAPGKERELVAAIRSGGDTNYADSVKGRFTISRDNAKNTVYLQMNSLKPEDTAVYYCAATVLGDYEYWGQGTQVTVSS | low polyreactivity
